{
  "source": "paper PMC6755732",
  "about": "“Structural, Biochemical, and In Vivo Characterization of MtrR-Mediated Resistance to Innate Antimicrobials by the Human Pathogen Neisseria gonorrhoeae” (Journal of Bacteriology, 2019)",
  "proteins": {"B1": {"name": "MtrR (natural protein)", "chain": "MRKTKTEALKTKEHLMLAALETFYRKGIARTSLNEIAQAAGVTRGALYWHFKNKEDLFDALFQRICDDIENCIAQDAADAEGGSWTVFRHTLLHFFERLQSNDIHYKFHNILFLKCEHTEQNAAVIAIARKHQAIWREKITAVLTEAVENQDLADDLDKETAVIFIKSTLDGLIWRWFSSGESFDLGKTAPRIIGIMMDNLENHPCLRRK", "notes": "also called native MtrR; WT MtrR"}},
  "molecular_target": "the molecule itself",
  "experiment": "crystal structure; hanging-drop vapor diffusion; 1.6 M Na+/K+ phosphate, 0.2 M LiSO4, 0.1 M CAPS pH 10.5; space group C2; two MtrR dimers in the asymmetric unit",
  "data": [
    {"protein": "B1", "values": [
      {"measurement": "binding result", "value": "binds"}
    ]}
  ]
}
